According to doi:10.1101/589515 (bioRxiv, 2019):

Target: the molecule itself
Experiment: cryo-EM structure

B1: human polycystin-2 (PC2), truncated construct Pro185 - Asp723 (domain or fragment, UniProt Q13563 185-723, looked up)
chain: PRVAWAERLVRGLRGLWGTRLMEESSTNREKYLKSVLRELVTYLLFLIVLCILTYGMMSSNVYYYTRMMSQLFLDTPVSKTEKTNFKTLSSMEDFWKFTEGSLLDGLYWKMQPSNQTEADNRSFIFYENLLLGVPRIRQLRVRNGSCSIPQDLRDEIKECYDVYSVSSEDRAPFGPRNGTAWIYTSEKDLNGSSHWGIIATYSGAGYYLDLSRTREETAAQVASLKKNVWLDRGTRATFIDFSVYNANINLFCVVRLLVEFPATGGVIPSWQFQPLKLIRYVTTFDFFLAACEIIFCFFIFYYVVEEILEIRIHKLHYFRSFWNCLDVVIVVLSVVAIGINIYRTSNVEVLLQFLEDQNTFPNFEHLAYWQIQFNNIAAVTVFFVWIKLFKFINFNRTMSQLSTTMSRCAKDLFGFAIMFFIIFLAYAQLAYLVFGTQVDDFSTFQECIFTQFRIILGDINFAEIEEANRVLGPIYFTTFVFFMFFILLNMFLAIINDTYSEVKSDLAQQKAEMELSDLIRKGYHKALVKLKLKKNTVD
stoichiometry N: 4
